# Assay results as given in patent publication US20080206136A1 (University of Pennsylvania, published 2008).
# Bridges are numbered along the chain shown (N, C = ends). Where no end group is shown, it is not given here.
# Target: T1, Her2 (UniProt P04626 23-652, limits assumed)
# T1 construct: also called Her2/neu; Neu
# Assay: method not stated; affinity for Her2
binder,measurement,value
"FCDGFYACYMDV (disulfide 2-8 (inferred), also called anti-Her2 peptide) [AHNP peptide]",Kd,350 nM
